Results as given in a protein production outcome set (Wang et al. 2014).

assay: label from the status in PepcDB records

Q: Which protein production does the source give for “MDQSTRARTRTAFAIDAVGQGAKAAVKAVWWTATGGLARSLTRPTEGPQARRFTPAAPPPVPGSLRRAYLEAFEKDARDVAAGLYPAIEDGPIRPSAALREAVDFLVDAFEVDQRRRRGDGAEVRNAADPSVYPNYYRQNFHYQSGGWFTAESAGRYDAQVEALFSGTAGAMRRRGLSLLARHWRGRDHRDAKILDVACGSGAFLKDLSAAFPRAALAGLDLSEAYLAKARKRTAVGGVKAKAETLPFGDATLDAVTCVYLFHELPPRVRPVVAASLARVLKPGGVLVLVDSVQPVDTPDLARLLEAFPVYFHEPYYSSYAETNLEALFAEAGLRLLDQDCAFLTKAMLFVKPGG” here?
A: Its protein production is “failed”.

Q: For “MDRADLRIAVLMGTKDGAPFIDEQLQSLLAQSHPLIDLWISDDGSVDGTVPIIEAWKSRWTKGRVTLVQGPREGFAANFRSMILDRRIDADFYAFSDQDDVWEPDRLESAVQWMQAFGAEPPLMFCSRTATMTETGSLAGHSPLFRRPPSFRNALVQSIAGGNTILLNRAARDLLARASARTGFVSHDWWAYLVVTGAGGVVHYDPRPLVRYRQHAANLVGANVSWAARVSRLGRLFKGEFADWTDLNLAGLAVNRDLLTPDAATCLDLFASGRQGSLFQRLRTLLVSGVYRQTLAGTLGLYLAFVLGRILEHHHHHH”, which protein production is on record?
A: Its protein production is “failed”.

Q: Which protein production does the source give for “MDRGGVLRVAAAALPAYAYFYNVGSIGFWLPLHVRELGWPYTYITLIATWYFVAVTLATPLVGLLSDLTRRPGYILAGGMAVVAATSVAIPHVENPPLLMALRALQGLGLAVGLPIALGSLSLIQGVRRGVASTVIASGLGMSGGAFLSGLMVEYLGFPALFYAAAVPAALSTLVALGWRPPPPPSGSPGLLAALRSMPWEVLVVMAGIAVRNTFASGVFSVVSIIFNKIVGISYTATGVVLAINPAVQASVTTVFERIMRGRALLLYSTGLSGTALAFYLYLTAGSALDLAAAQIALGAFYGATVVSGNTMIIALAPSEIRYTASSLYTFAFNIGWILGTSIAGKVMDAAGVDAWIKLAIAGTLVSGLIPLTLLASPRARRI” here?
A: The protein production was “failed”.

Q: With “MDRRIAMSLQVLGAGLGRTGTLSLKFALEHLGFGPCYHATEVAANMRTALPLWNAAERGAADWSAIFAGYRSSTDHPGCYYWRQLIEVYPQAKVVLTVRDPDSWFESVTQTILMPGRKSTFVGPEGETFSTFLKQQMGGRSQDRAFMVDYFNRWNQAVIDAVPSDRLLVFSSRQGWAPLCGFLSVPVPHKPYPHLHARPRLRWFTRGLRLPDDVAARERHVREYLQYLREDLFGLEHHHHHH” as the sequence, how does the protein production read?
A: The protein production was “not failed”.

Q: Which protein production does the source give for “MDRSERLIQLISEEGIDAFLIMNIENSARASSVYFSGFTGSFSIILISENTRLLITDSRYTVQAKQETDFEVREVKGGDFIDVLKKTVNDLKIKTIALEEERVSLSLFRRISSAFGDRKFIGIDDEVKQMRMVK” here?
A: Its protein production is “failed”.

Q: With “MDRSLLMAIIMLVLGNNIVILSDSLIKLLDGFEAPFQFVLYRQISATLMLLPFMLLFKRPLLPKNIRWHATRAHIFLLGTVFMVISLTTLPLATANAIFYAAPIITVVLARMFFKERVTRLSLITAVLGMVGVLVIVNPSSTNIFALAALVVATTLALNNLLVKKLPAEHSILDTLYLTNLLGIPLASAMAWFEGASFDVSTFLISVGSSLFAMIYAGTCVFAYRAAESNKVTSAEYTGLIGAVILGIVFFTETPDARFYIGSVLIIAPLTVLTLRNSNRSA” as the sequence, how does the protein production read?
A: The protein production was “failed”.

Q: Which protein production does the source give for “MDRYIDGFMKWMPESLFICFILTFLVVTMSVLMTDSPFIGTEKTGGIIYGWVNGFWGLLSFAMQMTILLATGNAVASSPPAHKMFKSLAKLPQTRTQIFIFSIVVGSIFGFLHWGLGMMVAIVFGKELLVQARQKGIKVHTPLFVATLFFTFLPATSGLSGAAVLYSATPDYLRNSVADAYKQVVPESVPLTESVLNLPFISLLVVCMLVPLCFALLAHPKDETKIMELDDEIYHHSLDTASHVVIARNTPAEKMNASRLVMYLVGGAIVSYSLYHFSVVGLSGLDLNCFNFLFLGLGLLLCGQQGPEYYGSLFKDGVMSSWGLVLQFPFYAGIFGIIQSTGLGLEISHFFVAISNGTTWPVFAYLYSALLNIAVPSGGSKFVIEAPYIVPATIEVGNDLGKILQAYQLGDATTNLIVPFWALSYLSNFKLKFNQIVAYTIPCVLVVTGIAIIYLFVF” here?
A: The protein production was “failed”.

Q: Which protein production does the source give for “MDSDETGFEHSGLWVSVLAGLLLGACQAHPIPDSSPLLQFGGQVRQRYLYTDDAQQTEAHLEIREDGTVGGAADQSPESLLQLKALKPGVIQILGVKTSRFLCQRPDGALYGSLHFDPEACSFRELLLEDGYNVYQSEAHGLPLHLPGNKSPHRDPAPRGPARFLPLPGLPPALPEPPGILAPQPPDVGSSDPLSMVGPSQGRSPSYAS” here?
A: The protein production was “failed”.

Q: With “MDSEKALELVKHGATLLFLDVPQYTLVGIDTQIFAVGPAFKGIKMIPPGIHFVFYSSSTRDGREFSPTIGFFVDVAPSQVIVRKWNQQDEWLTKVSEEEEERYSQAVRSLEFDKNLGPYNLKQYGEWRHLSNYITKDVVEKFEPVGGEITVTYESAILKGGPKTAMEIALDTQMKKSKFTTSSTEQPKGNRFYYTSIPRIIKHKGMSGQELTSMNLDKTQLLESVLSKEYKDSEDLLLGELQFSFVAFLMGQSLESFMQWKSIVSLLLGCTSAPFQTRSQLFTKFIKVIYHQLKYGLQKENSGPETGIHALLDDSWLASDSFLHFLCKDFFALVEETSVVDGDLLSWTRKFKELLENRLGWEFQKKSAVDGIYFEEDDEYAPVVEMLDESHGEYMDKTT” as the sequence, how does the protein production read?
A: Its protein production is “failed”.

Q: Which protein production does the source give for “MDSGRLAVIALGGNAIAGPGMDVSVESQTAAVKRASSIIADVLADGWRSVITHGNGPQVGYLSEAFEALPPERPRQPLYIATAMTQAWIGLLLKHSLEEELRRRGLNVLVPVVISRVLVDVSDPSFNNPSKPVGPIYGREEAEELSRRYGWVFKRDPRGGFRRVVPSPRPVSIVDRDLIAEASAESPAVVALGGGGVPVVERPGGVLEPVEAVVDKDLASSLLATQLNADLLVILTDVPGVAVNYGREGERWLRRAAASELKKYLREGHFPPGSMGPKVEAAISFVERTGKPAVIGSLEEARQVLSLQAGTVVMLG” here?
A: Its protein production is “not failed”.

Q: For “MDSITQAALGASIAGAVAGKTLGRSALLTGALLGTLPDLDVVIDYGTAVANFTQHRGFSHSLFILAPLSLLIAWGLWRWKPLISYQRWLALVGLILITHPLLDAFTTYGTQLFWPIGPPVAINSIFIIDPLYTLPLLAGCLAFLYRPPASRTVAAGLLVSSLYLGWTLIAQQIITDRVRPALANAGMEQAALMVQPMPFNTVLWRATAVSAGQRIEVVTGFLDASDELVLERFPRQPELARLVAELPEARRLEWFTGGFLDYQQNGTQITATDIRLGIPGAHPFTFILAETAEDGLQPLASDRLPRPALNRAALPLLWDRMTGQVPVLCLATLSVPNHGNSC”, which protein production is on record?
A: The protein production was “failed”.

Q: For “MDSLIPFDYATLRVLWWLLLGALLIGFAVMDGFDLGVAALLPLVAKTDVERRVVLNVVGPVWEGNQVWLITAGGAIFAAWPLLYAASFSGFYLAMMLVLIALILRPVGFKYRSKMEGTRWRSRWDAVLCFCGVVAALVFGVAMGNIILGVPFGFDAATLRPEYEGHFYQLFKPFALLAGLVSVAMMVMHGGVLLAWRTHDPVSSRARNWGRLAALVTAALFVAGGFWVAYGLDGHVITSAVDMHAPSNPMLKTVELQAGGWMANYEKWPLTWIAPALGVGGALLAFVLLSARANVLAFLASSVSIAGIILTVGFALFPFIMPSSSRPGAGLTVWDGSSSLLTLWIMLLAVAFFLPIITVYTAWVYRVMRGKVTEDSVDGTPNSY”, which protein production is on record?
A: Its protein production is “failed”.

Q: Which protein production does the source give for “MDSLMTLLSVLIPMFAGFFIRVPKPYLPALDKVLSVLVYAVLLLIGVSLSRVEDLGSRLDDMALTVLWLFVCTVGANLLALAVLGKLFP” here?
A: The protein production was “failed”.

Q: With “MDSRSLSVHDGAMQTLTVPDSGLAPLLPGQRLARGVCRHLRSHDFVSVVELVPAPGLRVDVMALGPKGEIWVVECKSSRADYQSDRKWQGYLDWCDRFFFAVDEAFPVDLLPEGTGLMLADGYDAEILRIGPEGRLAPARRKAVIQGFARHAALRLQGLRDPGAFPG” as the sequence, how does the protein production read?
A: Its protein production is “failed”.

Q: With “MDSSLSQKFTLAYASLLGVGGLMGYLKRGSKISLVAGGGSAALFYYVYTELPGNPVLASSIGIVGSAALTGMMGSRYLRTRKVVPAGLVSVVSLVMTGAYLHGLIRSS” as the sequence, how does the protein production read?
A: The protein production was “failed”.

Q: Which protein production does the source give for “MDSSSLEQELRWMKLVWEEAPGDKTEGPLTSPGWSTLFQAVWWGAPSLVMQLLRQGSSVEERDHTGRTPLHLAVMRGHAPLVRLLLQRGALAGAADHTGRTPLHEAAWHGHSNVAELLLRRGASAAACSQTGLTPLHGAAALGRTLLVTSFTVASDSGSDVKDVRGWTAAHWAAACGQLAVLELLSAGGNADLDGALLVSAIAGSTSSLQLLLTLGAKVDTQDSTGATALGLAAGLGHHQMLFFLCCLKKKQERKTHCWDWPLANLDPLEEQKLQELSIPRNLASVPAGGWTPSPGYIFRTVDTFVHGQLMPTEERTTECSLAVSVDLISVRDCSPSPPAGFPPVSALTIHPRADGLAQRN” here?
A: Its protein production is “failed”.

Q: With “MDSTGASQIVSALDVIYSPKSNNSQRQEAQKFLDEVKLCSESPFWGYEIALQNPTNSILKYFGLGLLDHAVKKNWNDYDEGKRVALRKWVMELNFGVQDYDTRYIKEKLATLWVEVAKRTWGEALKQTNPTEEQLLTSWVDMDNNLFELWNINQSSRELALIIFRILFEDVFLLDDLIVLKRMTVIQPLCVMIVCPIEVFAIKYKFSDKWTKFKANEEGWFSVWIPELNNALQQNNSEYIIRLLETLKTCLNWPLTEVIVRNDVLSSLLTCLSSNIPRAQSMALDSIHILLTRPYSNESHYQMTIDRVFDNMDLLDSVYESLLFDPTDDIDETKYPIIKKFVDMISCLYVCVPKIKETNGQIQKYFKLVLKTTYNPSLIVSGLTLDLWCTCLRNDEYLPKLEKYVIPDLLQFAADALVYYEQIDGHISKKFAEIDFQSKSEFQTFCSTYRKRIRDIIRLISCVELDLTYDWLNNRLNNYFSSPFGQQVLSSTFLDHKLEPYLGALSQYMIVECFINGCIRWKIWYPTGDDYDEKLDSILQKLEILSNQLIALNLREPLLLKKQIQNFALFLTMLKDNVLFTLLEKIITSATMDYPEINLEERGAESDAVRDLRYACGIELNRMALLMPESLKKIYPDLESVIARIMPNLSYHEKISFKSFLLIIVLKSSLDMKEERFAAIVDPELLAWSDKTTVVGLSDLHWFMERLGIVQIAEYFQRRDIDENSDLLSIPIDDEGKELKSELTKRWQSLFPVRATRMFIHYSMQSIKTDEEFKMLQDLWRPRIVPILPYITRLLYQLQSYHDPDNWKGLPTVVQSFVKYSTIERFWEAGASNKSKDEFIDEHMKAMQTLRDFADSVGHIIRYTREYTLLVLSAISSLGSVFYLLDESPDLLLNSIAIFKPGSNEISPGVSTHGWKHIMNIAIRPILKGCPKDCLGKFMPAFLPKLFEILDLLLCQKWSSHMNDMDMNPVPTDDDQMTEEILEENLLRQLTTVVVRIVIDCVGQGNANPNSAKSRLNNHQMEMRKIIFNDLNTLAPFLKLLNHLISFKDTKCSFNSILVMKCCLTSVLNQNNTVDEYFTFEVMKNLLLNVLCNSAFKDSFHEALYAFTVIFLTLCKEYPSARAFLFEISNGYNIDELYRNLRSVDEYKTQRALMIDFIDWVKSTSGKEDGNVDHAGDERKRQEKREAILKKANERLIKKNKENGDMLDDPNIEDGAVGNLFDDN” as the sequence, how does the protein production read?
A: Its protein production is “failed”.

Q: Which protein production does the source give for “MDSVTLACGNGGKETNALIERVFMPYLKEWIVAFDEDAPKFEASGEYCVSTDSFVITPLIFNGGDIGKLCVCGSANDVSVQGGEPLYLNMGFILEEGLEISLLKQILQSIQKELFKANLKLLSLDTKVVPKGSVDKLFINTTCIGKIIKPGISSYHLQQGQAIILSDTIANHGASLFAMRNEIKLKTNLESDCQLLYPLLKPLFLSDLKIDALRDATRGGLASVLNEWANSSRVKIVIEEEKIPLKEETKGICEILGLEPYALANEGVFVLALNQKDAPKALEILKSNEKAKNACVIGKVFENPYPSVVLKNAWGFERILEVPEGELLPRIC” here?
A: Its protein production is “failed”.
